The source of these data is PMC5358875 (Journal of the American Chemical Society, 2017).

First the molecules themselves.
T1: TNKS2 ARC4 (Homo sapiens, UniProt Q9H2K2)
T1 construct: GST (cleaved yes); made in house; host or cells: E. coli C41(DE3)
T1 sequence (Q9H2K2 488-649): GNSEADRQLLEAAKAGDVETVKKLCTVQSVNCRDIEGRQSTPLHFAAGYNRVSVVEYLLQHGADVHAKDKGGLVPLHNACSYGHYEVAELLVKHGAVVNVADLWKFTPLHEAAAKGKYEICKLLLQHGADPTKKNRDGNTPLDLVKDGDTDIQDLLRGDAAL

T2: human tankyrase 2 ankyrin repeat cluster 4 (TNKS2 ARC4, residues 488-649) (human, UniProt Q9H2K2 488-649)
T2 sequence (looked up): T1 sequence (Q9H2K2 488-649)

T3: human tankyrase 1 ankyrin repeat clusters 2-3 (TNKS1 ARC2-3, residues 315-662) (human, UniProt O95271 315-662)
T3 sequence (looked up): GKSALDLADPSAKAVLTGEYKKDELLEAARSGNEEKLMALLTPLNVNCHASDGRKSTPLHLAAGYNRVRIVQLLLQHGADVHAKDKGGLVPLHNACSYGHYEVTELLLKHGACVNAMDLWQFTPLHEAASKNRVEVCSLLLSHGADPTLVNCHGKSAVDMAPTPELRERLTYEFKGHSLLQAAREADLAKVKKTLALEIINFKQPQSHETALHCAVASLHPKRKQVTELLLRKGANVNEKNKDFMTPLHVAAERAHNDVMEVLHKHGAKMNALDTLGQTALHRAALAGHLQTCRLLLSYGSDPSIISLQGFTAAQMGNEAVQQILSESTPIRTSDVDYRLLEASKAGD

B1: TNKS1 ARC2–3 (315–662) (domain or fragment, human, UniProt O95271 315-662, looked up)
chain: T3 sequence (looked up)
B2: human Axin1 residues 1-80 (domain or fragment, UniProt O15169 1-80, looked up)
chain: MNIQEQGFPLDLGASFTEDAPRPPVPGEEGELVSTDPRPASYSFCSGKGVGIKGETSTATPRRSDLDLGYEPEGSASPTP
B3: TNKS2 ARC4 (488–649) (domain or fragment, human, UniProt Q9H2K2 488-649, looked up)
chain: T1 sequence (Q9H2K2 488-649)
B4: T-cp4n2m3c-Antp (peptide)
chain 1: REXGDGXE
chain 2: RQIKIWFQNRRMKWKK
modifications: 5-TAMRA-Ahx on the N-terminus; X3 and X7 (n2, 2 CH2): azido unnatural amino acids cross-linked through two triazoles by linker m3c, which carries the second chain | two Ahx spacers between the m3c linker and the N-terminus
B5: T-cp4n2m3c-R6 (peptide)
chain 1: {5‑TAMRA-Ahx}-RE[Aha]GDG[Aha]E
chain 2: RRRRRR
modifications: triazole I:3-I:7 via m3c; not fully specified (N-terminus); reading uncertain; also: chain 2 N-terminus conjugated to m3c linker of chain 1

The target of one assay is T1, TNKS2 ARC4. Description: Competitive fluorescence polarization, TNKS2 ARC4. It is filed as binding. The conditions noted are these: unlabeled peptides; tracer T-pep1 bound to ARC4; read-out: Kd TNKS2 ARC4 (Competition FP). How it is done: Fluorescence polarization (FP) assays were performed in 96-well half area black microplates (Corning) on a CLARIOstar microplate reader (BMG labtech) using excitation filter 540–20 nm, dichroic mirror LP 566 nm, and emission filter 590–20 nm. All peptides were dissolved in water as stock solutions. For direct FP assays, the stock concentrations of the TAMRA-labeled peptides were determined based on the 5-TAMRA absorbance at 556 nm (extinction coefficient ε = 89,000 M^–1 cm^–1) measured on a NanoDrop 2000 (Thermo Scientific) and verified by amino acid analysis (Department of Biochemistry, University of Cambridge). […] Data were analyzed on GraphPad Prism 5.0, and the dissociation constant, Kd, was determined using the following equation assuming the ratio between the concentration of the bound and that of the total TAMRA-labeled peptide is proportional to the fluorescence polarization [drawing 1] where FP is the fluorescence polarization, B is the minimum FP, T is the maximum FP, L0 is the total concentration of TAMRA-labeled peptide, P0 is the total concentration of protein, and Kd is the dissociation constant.
For the competition FP assays, the stock concentrations of the unlabeled macrocyclized peptides or the Axin1 fragments were determined by amino acid analysis. […]
For orientation: In fluorescence polarisation assays a small probe gives low polarisation when free and higher when bound to something large.

Assay [1] concerns the target B3. Description: fluorescence polarisation; competitive FP; T-pep1 (20 nM) with TNKS2 ARC4 (3 μM) as tracer, unlabeled peptide serially diluted; PBS, 0.05% Tween 20; 30 min at 25 °C. To be noted: both partners purified.
For assay [2], the target named is B3. Description: pull-down; GST-Axin1 1–80 on glutathione beads incubated with TNKS2 ARC4 (89 μM), washed, then incubated 0.5 h at room temperature with unlabeled peptide (0–200 μM); wash buffer 50 mM Tris·HCl pH 8.0, 500 mM NaCl, 2 mM DTT; SDS-PAGE, Coomassie, densitometry. The conditions noted are these: both partners purified.
The target in assay [3] is T2, human tankyrase 2 ankyrin repeat …. Description: fluorescence polarisation; direct: TNKS2 ARC4 or TNKS1 ARC2-3 diluted 2-fold serially (40-0 uM, 50 uL) and mixed with TAMRA-labeled peptide (20 nM, 50 uL); 50 mM HEPES pH 7.5, 300 mM NaCl, 2 mM DTT, 0.05% Tween 20; 30 min, 25 C. To be noted: both partners purified.
The target in assay [4] is T3, human tankyrase 1 ankyrin repeat …. Described as above. To be noted: both partners purified.
The target in assay [5] is B3. Description: fluorescence polarisation; direct FP; TAMRA-labeled peptide (20 nM, 50 μL) mixed with serially diluted TNKS2 ARC4 (40–0 μM, 50 μL); 50 mM HEPES pH 7.5, 300 mM NaCl, 2 mM DTT, 0.05% Tween 20; 30 min at 25 °C. The conditions noted are these: both partners purified.
For assay [6], the target named is T3, human tankyrase 1 ankyrin repeat …. Description: fluorescence polarisation; competition: Axin1 fragment diluted 2-fold serially against TAMRA-labeled pep1 (20 nM) with TNKS1 ARC2-3 (1.2 uM); PBS, 0.05% Tween 20; 30 min, 25 C. To be noted: both partners purified.
The target of assay [7] is T2, human tankyrase 2 ankyrin repeat …. Description: fluorescence polarisation; competition: unlabeled peptide or Axin1 fragment diluted 2-fold serially against TAMRA-labeled pep1 (20 nM) with TNKS2 ARC4 (3 uM); PBS, 0.05% Tween 20; 30 min, 25 C. To be noted: both partners purified.
Assay [8] shares this target. Description: ITC; TNKS2 ARC4 (160-280 uM) or TNKS1 ARC2-3 (60-150 uM) titrated into the cell with unlabeled peptide (5-15 uM) or Axin1 fragment (8-12 uM); PBS, 0.5 mM TCEP; 25 C; one-site model; stoichiometry = TNKS per peptide or Axin1. To be noted: both partners purified. In general terms: Isothermal titration calorimetry measures the heat released or taken up as one component is titrated into another.

In assay [9] the target is T3, human tankyrase 1 ankyrin repeat …. Described as above. To be noted: both partners purified.
The next assay addresses human Axin1_1–80 (human, UniProt O15169 1-80). Description: ITC; TNKS2 ARC4 (160–280 μM) or TNKS1 ARC2–3 (60–150 μM) titrated into the cell holding peptide (5–15 μM) or Axin1 fragment (8–12 μM); PBS, 0.5 mM TCEP; 25 °C; one-site model. To be noted: both partners purified.
The target in another assay is T-cp4n2m3c. Description: fluorescence polarisation; direct FP; TAMRA-labeled peptide (20 nM, 50 μL) mixed with serially diluted TNKS2 ARC4 (40–0 μM, 50 μL); 50 mM HEPES pH 7.5, 300 mM NaCl, 2 mM DTT, 0.05% Tween 20; 30 min at 25 °C.
Assay [10] concerns the target T2, human tankyrase 2 ankyrin repeat …. Description: fluorescence polarisation; direct: TNKS2 ARC4 or TNKS1 ARC2-3 diluted 2-fold serially (40-0 uM, 50 uL) and mixed with TAMRA-labeled peptide (20 nM, 50 uL); 50 mM HEPES pH 7.5, 300 mM NaCl, 2 mM DTT, 0.05% Tween 20; 30 min, 25 C. To be noted: both partners purified. This is another data set of the same source.

Bridge positions count the residues as written; N and C are the ends. Square brackets hold non-standard residues; d marks the D form. Ends that are not written are not given here. Peptide text beside a SMILES is read from it. I, II: the chains in the order shown. * marks the point of attachment. 5‑TAMRA = CN(C)c1ccc2c(-c3ccc(C(=O)*)cc3C(=O)[O-])c3ccc(N(C)C)cc3[o+]c2c1; Lys(N3) = [N-]=[N+]=NCCCC[C@H](N)C(=O)O; Aha = [N-]=[N+]=NCC[C@H](N)C(=O)O; m3c = not defined here; m3 = not defined here; Ahx = NCCCCCC(=O)O

Broadly, the Kd is a measure of binding affinity in units of concentration. Turning to `CC(=O)N[C@@H](CCCNC(=N)N)C(=O)N[C@@H](CCC(=O)O)C(=O)N[C@@H](CCCCN=[N+]=[N-])C(=O)NCC(=O)N[C@@H](CC(=O)O)C(=O)NCC(=O)N[C@@H](CCC(=O)O)C(=O)N[C@@H](CCCCN=[N+]=[N-])C(N)=O` [cp5n4] (Ac-RE[Lys(N3)]GDGE[Lys(N3)]-NH2), at TNKS2 ARC4, the equilibrium dissociation constant (Kd) turned out to be 2600 ± 100 nM.
On the same count and under the same terms, the value for `CC(=O)N[C@@H](CCCNC(=N)N)C(=O)N[C@@H](CCC(=O)O)C(=O)N[C@@H](CCCCN=[N+]=[N-])C(=O)NCC(=O)N[C@@H](CC(=O)O)C(=O)NCC(=O)N[C@@H](CCCCN=[N+]=[N-])C(=O)N[C@@H](CCC(=O)O)C(N)=O` [cp4n4] (Ac-RE[Lys(N3)]GDG[Lys(N3)]E-NH2) was 1400 ± 100 nM.
As usually defined, the IC50 is the concentration at which inhibition is half-maximal. Lower therefore signals inhibition by little substance. In the assay with TNKS2 ARC4 (488–649) [1], Ac-REAGDGEE [pep1] gave a Kd of 1200 ± 100 nM. For the same molecule, the concentration for half-maximal inhibition (IC50) in the assay with TNKS2 ARC4 (488–649) [2] is approximately 40000 nM.
For the molecule {5‑TAMRA-Ahx}-REAGDGEE [T-pep1 (TAMRA-Ahx-REAGDGEE), listing 1 of 2 here], the Kd in assay [3] came out at 780 ± 60 nM; in assay [4], 190 ± 4 nM.
{5‑TAMRA-Ahx}-REAGDGEE [T-pep1 (TAMRA-Ahx-REAGDGEE), listing 2 of 2 here] showed a dissociation constant Kd in the assay with TNKS2 ARC4 (488–649) [5] of 800 ± 100 nM.
The stoichiometry N is a count of units in the complex or per binding partner. As for MNIQEQGFPLDLGASFTEDAPRPPVPGEEGELVSTDPRPASYS (domain or fragment, UniProt O15169 1-43, looked up) [human Axin1 residues 1-43], the Kd in assay [6] turned out to be 560 ± 40 nM; in [7], 3680 ± 180 nM; in assay [8], 2120 ± 160 nM; in [9], 830 ± 80 nM. For the same molecule, the “stoichiometry N” value in assay [8] amounted to 1 ± 0.02; in assay [9], 1 ± 0.01.
As for B1, the “stoichiometry N” value with human Axin1_1–80 amounted to 2.
On to B2, for which the dissociation constant Kd in assay [7] turned out to be 2780 ± 220 nM; in assay [8], 2620 ± 360 nM; in assay [9] it was 1590 ± 90 nM. Also, the “stoichiometry N” value came out at 1 ± 0.03 in assay [8] and 2.1 ± 0.02 in assay [9].
In the case of B3, the “stoichiometry N” value with human Axin1_1–80 amounted to 1. The molecule also gave a fold higher affinity than T-pep1 in the assay with T-cp4n2m3c of 2 fold.
Consider Ac-RE[Aha]GDG[Aha]E (triazole 3-7 via m3; reading uncertain) [cp4n2m3], for which the 50% inhibitory concentration (IC50) with TNKS2 ARC4 (488–649) [2] is approximately 20000 nM.
Regarding B4, the Kd in [10] was 490 ± 20 nM.
The same measure, in the same setting: the value for B5 was 950 ± 20 nM.
